Measurements reported in the supplement of paper PMC7877785.
± gives the uncertainty stated by the source.

Assay: self-splicing fitness, log relative to wild type (ln ratio); higher = more splicing; Tetrahymena group I intron in knt gene, E. coli kanamycin selection, DiMSum; sequences stand for … in CUCUCU…GGAGGGAAAAGUUAUCAGGCAUGCACCUGGUAGCUAGUCUUUAAACCAAUAGAUUGCAUCGGUUUAAAAGGCAAGACCGUCAAAUUGCGGGAAAGGGGUCAACAGCCGUUCAGUACCAAGUCUCAGGGGAAACUUUGAGAUGGCCUUGCAAAGGGUAUGGUAAUAAGCUGACGGACAUGGUCCUAACCACGCAGCCAAGUCCUAAGUCAACAGAUCUUCUGUUGAUAUGGAUGCAGUUCACAGACUAAAUGUCGGUCGGGGAAGAUGUAUUCUUCUCAUAAGAUAUAGUCGGACCUCUCCUUAAUGGGAGCUAGCGGAUGAAGUGAUGCAACACUGGAGCCGCUGGGAACUAAUUUGUAUGCGAAAGUAUAUUGAUUAGUUUUGGAGUACUCGUGGUCG
How it was run: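 Fitness was computed with DiMSum as the error-weighted combination of replicate fold changes, kanamycin versus none, each normalised to wild type. The library randomised all eight intron nucleotides of the P1ex region, with the intron placed in the knt kanamycin-resistance gene on pET-22b(+) in E. coli BL21(DE3). Six replicate transformations were grown overnight at 37°C or 30°C on LB agar with or without 25 μg/mL kanamycin, plus 100 μg/mL carbenicillin, 50 μM IPTG and 0.2% rhamnose. Pooled colonies were amplicon-sequenced on an Illumina HiSeq 2500.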

Sequence | self-splicing fitness (ln) (30 °C) | self-splicing fitness (ln) (37 °C)
GUGCAGCAAUAUUACGCGGC | -1.7 ± 0.14 | -2.51 ± 0.23
GUGCAGCAAUAUUACGCGUG | -1.52 ± 0.11 | -1.66 ± 0.16
GUGCAGCAAUAUUACGGACC | -0.711 ± 0.31 | 
GUGCAGCAAUAUUACGGCCU | -0.775 ± 0.11 | 0.175 ± 0.13
GUGCAGCAAUAUUACGGCUA | -0.0246 ± 0.077 | 0.17 ± 0.096
GUGCAGCAAUAUUACGGUGG | -1.63 ± 0.11 | -1.16 ± 0.13
GUGCAGCAAUAUUACGGUUG | -2.62 ± 0.19 | -1.95 ± 0.16
GUGCAGCAAUAUUACGUACG | -2.19 ± 0.086 | -1.18 ± 0.08
GUGCAGCAAUAUUACGUCCU | -0.637 ± 0.12 | -0.541 ± 0.096
GUGCAGCAAUAUUACGUCGA | -1.22 ± 0.096 | -0.927 ± 0.1
GUGCAGCAAUAUUACGUGGU | -2.55 ± 0.078 | -1.1 ± 0.091
GUGCAGCAAUAUUACGUUCG | -1.52 ± 0.09 | -0.675 ± 0.14
GUGGAGCAAUAUUACGAAAC |  | -2.23 ± 0.3
GUGGAGCAAUAUUACGAAGG | -2.69 ± 0.27 | -2 ± 0.4
GUGGAGCAAUAUUACGACCU | -1.22 ± 0.094 | -0.548 ± 0.11
GUGGAGCAAUAUUACGAGAU | -3.23 ± 0.36 | -2.22 ± 0.41
GUGGAGCAAUAUUACGAGCC |  | -1.59 ± 0.35
GUGGAGCAAUAUUACGCUAU | -2.85 ± 0.25 | 
GUGGAGCAAUAUUACGCUCG | -1.35 ± 0.16 | -1.39 ± 0.23
GUGGAGCAAUAUUACGGAGG | -2.41 ± 0.28 | -0.95 ± 0.28
GUGGAGCAAUAUUACGGGGA | -3.12 ± 0.44 | -2.65 ± 0.4
GUGGAGCAAUAUUACGGGUA | -2.09 ± 0.31 | -2.4 ± 0.45
GUGGAGCAAUAUUACGGGUU | -3.16 ± 0.18 | -3.15 ± 0.48
GUGGAGCAAUAUUACGUCGA | -3.42 ± 0.37 | -1.48 ± 0.3
GUGGAGCAAUAUUACGUCUG |  | -1.75 ± 0.32

Sequence | self-splicing fitness (ln) (30 °C) | self-splicing fitness (ln) (37 °C)
GUGGAGCAAUAUUACGUGUA | -2.68 ± 0.2 | -2.85 ± 0.24
GUGGAGCAAUAUUACGUGUU | -4.54 ± 0.47 | 
GUGGAGCAAUAUUACGUUUC | -3.39 ± 0.37 | -1.9 ± 0.21
GUGUAGCAAUAUUACGAACU | -1.57 ± 0.25 | -0.299 ± 0.2
GUGUAGCAAUAUUACGAAUG |  | -1.51 ± 0.25
GUGUAGCAAUAUUACGAAUU | -2.33 ± 0.064 | -1.85 ± 0.097
GUGUAGCAAUAUUACGACAG | -2.07 ± 0.42 | 
GUGUAGCAAUAUUACGACCU | -0.216 ± 0.27 | 0.601 ± 0.24
GUGUAGCAAUAUUACGACUG | -1.71 ± 0.25 | -1.47 ± 0.42
GUGUAGCAAUAUUACGAGUC | -1.74 ± 0.36 | -1.03 ± 0.3
GUGUAGCAAUAUUACGAUCA | -0.818 ± 0.13 | -0.543 ± 0.14
GUGUAGCAAUAUUACGCCCG | -2.51 ± 0.35 | -0.74 ± 0.23
GUGUAGCAAUAUUACGCCGA |  | -2.39 ± 0.42
GUGUAGCAAUAUUACGCUAC | -2.35 ± 0.49 | 
GUGUAGCAAUAUUACGGACU | -0.979 ± 0.1 | -0.103 ± 0.12
GUGUAGCAAUAUUACGGAUA | -2.46 ± 0.23 | -0.0303 ± 0.17
GUGUAGCAAUAUUACGGAUC | -1.04 ± 0.13 | 0.406 ± 0.17
GUGUAGCAAUAUUACGGCAU | -3.48 ± 0.41 | -0.582 ± 0.2
GUGUAGCAAUAUUACGGCCG | -0.432 ± 0.22 | -0.71 ± 0.34
GUGUAGCAAUAUUACGGCGC | -2.06 ± 0.44 | -0.968 ± 0.32
GUGUAGCAAUAUUACGUACG | -2.64 ± 0.23 | -1.14 ± 0.16
GUGUAGCAAUAUUACGUAGC | -3.09 ± 0.23 | -1.41 ± 0.28
GUGUAGCAAUAUUACGUCGU | -1.67 ± 0.15 | -1.1 ± 0.16
GUGUAGCAAUAUUACGUGGA | -3.41 ± 0.3 | -2.04 ± 0.23
GUGUAGCAAUAUUACGUGGU | -3.96 ± 0.27 | -1.17 ± 0.22

Sequence | self-splicing fitness (ln) (30 °C) | self-splicing fitness (ln) (37 °C)
GUGUAGCAAUAUUACGUGUG | -3.21 ± 0.18 | -1.69 ± 0.15
GUGUAGCAAUAUUACGUUAA | -2.21 ± 0.2 | -1.8 ± 0.16
GUGUAGCAAUAUUACGUUGG | -4.05 ± 0.42 | -2.06 ± 0.21
GUUAAGCAAUAUUACGAAGC | -2.32 ± 0.41 | -1.82 ± 0.3
GUUAAGCAAUAUUACGAAUA | -1.19 ± 0.25 | -0.46 ± 0.32
GUUAAGCAAUAUUACGACGA | -1.13 ± 0.11 | -1.14 ± 0.12
GUUAAGCAAUAUUACGCAAU | -3.09 ± 0.44 | 
GUUAAGCAAUAUUACGCCAC | -3.63 ± 0.4 | -3.27 ± 0.47
GUUAAGCAAUAUUACGCUGC | -3.43 ± 0.33 | -1.49 ± 0.32
GUUAAGCAAUAUUACGGAUC | -0.695 ± 0.09 | 0.135 ± 0.12
GUUAAGCAAUAUUACGGCCA | -0.63 ± 0.17 | -0.359 ± 0.23
GUUAAGCAAUAUUACGGCCG | -1.61 ± 0.2 | -0.597 ± 0.37
GUUAAGCAAUAUUACGGCGC | 0.441 ± 0.15 | -0.509 ± 0.14
GUUAAGCAAUAUUACGGGCC |  | -2.12 ± 0.37
GUUAAGCAAUAUUACGGUCG | -1.32 ± 0.066 | -0.767 ± 0.094
GUUAAGCAAUAUUACGGUGG | -3.52 ± 0.17 | -1.78 ± 0.15
GUUAAGCAAUAUUACGUCAA | -1.38 ± 0.11 | -1.33 ± 0.13
GUUAAGCAAUAUUACGUCGG | -2.75 ± 0.2 | -2.55 ± 0.25
GUUAAGCAAUAUUACGUCUC | -0.932 ± 0.1 | -0.514 ± 0.12
GUUAAGCAAUAUUACGUCUG | -1.38 ± 0.098 | -1.3 ± 0.13
GUUAAGCAAUAUUACGUGCU | -1.6 ± 0.087 | -0.714 ± 0.11
GUUAAGCAAUAUUACGUUUG | -2.55 ± 0.12 | -1.86 ± 0.17
GUUCAGCAAUAUUACGACUC | 0.0553 ± 0.47 | 
GUUCAGCAAUAUUACGAGGG | -2.72 ± 0.19 | -0.563 ± 0.16
GUUCAGCAAUAUUACGAGUU | -1.43 ± 0.088 | -0.77 ± 0.086

Sequence | self-splicing fitness (ln) (30 °C) | self-splicing fitness (ln) (37 °C)
GUUCAGCAAUAUUACGCCCA | -0.553 ± 0.1 | -1.26 ± 0.1
GUUCAGCAAUAUUACGCCUC | -0.427 ± 0.14 | 0.0352 ± 0.16
GUUCAGCAAUAUUACGCGUA | -0.404 ± 0.12 | -0.287 ± 0.15
GUUCAGCAAUAUUACGGAAA | -0.778 ± 0.13 | 0.58 ± 0.19
GUUCAGCAAUAUUACGGAUA | -0.566 ± 0.13 | -0.413 ± 0.1
GUUCAGCAAUAUUACGGCGU | -0.298 ± 0.085 | 0.138 ± 0.11
GUUCAGCAAUAUUACGUCAA | -1.86 ± 0.14 | -0.976 ± 0.14
GUUCAGCAAUAUUACGUCAC | -1.78 ± 0.17 | -1.27 ± 0.17
GUUCAGCAAUAUUACGUCGC | -0.991 ± 0.1 | -0.347 ± 0.12
GUUCAGCAAUAUUACGUCUG | -2.67 ± 0.085 | -1.54 ± 0.072
GUUCAGCAAUAUUACGUGCA | -0.645 ± 0.11 | -0.382 ± 0.11
GUUCAGCAAUAUUACGUUUA | -1.21 ± 0.11 | -0.233 ± 0.09
GUUGAGCAAUAUUACGACUC | 0.144 ± 0.2 | -0.535 ± 0.19
GUUGAGCAAUAUUACGAUUA | -1.94 ± 0.21 | -1.23 ± 0.22
GUUGAGCAAUAUUACGCAUU | -2.68 ± 0.2 | -2.45 ± 0.33
GUUGAGCAAUAUUACGCCUG |  | -2.05 ± 0.35
GUUGAGCAAUAUUACGCGCA | -1.02 ± 0.2 | -0.636 ± 0.24
GUUGAGCAAUAUUACGCGUG | -3.36 ± 0.15 | -2.66 ± 0.21
GUUGAGCAAUAUUACGCUCC | -1.81 ± 0.48 | 
GUUGAGCAAUAUUACGCUGC |  | -0.666 ± 0.3
GUUGAGCAAUAUUACGCUUA | -2.55 ± 0.21 | -0.787 ± 0.17
GUUGAGCAAUAUUACGGAGA | -2.47 ± 0.45 | -1.8 ± 0.35
GUUGAGCAAUAUUACGGAGU | -3.52 ± 0.29 | -2.7 ± 0.29
GUUGAGCAAUAUUACGGAUG | -3.56 ± 0.42 | -1.75 ± 0.36
GUUGAGCAAUAUUACGGGCC | -3.53 ± 0.5 | -1.82 ± 0.39
